Laboratory results from article PMC3156243, “Properties and Crystal Structure of Methylenetetrahydrofolate Reductase from Thermus thermophilus HB8” (PLoS ONE, 2011).

Biological target: the molecule itself
Assay: SEC-MALS; as-purified MTHFR; HPLC on TSK-gel G3000SWxl with multi-angle light scattering and refractive index detectors; 50 mM Tris-HCl pH 6.8, 0.2 M NaCl; 0.5 ml/min; 0.1 mg protein/run

B1: Methylenetetrahydrofolate reductase (MTHFR) from Thermus thermophilus HB8, C-terminally hexa-His-tagged wildtype (enzyme, UniProt Q5SLG6 1-296, looked up)
chain: MKIRDLLKARRGPLFSFEFFPPKDPEGEEALFRTLEELKAFRPAFVSITYGAMGSTRERSVAWAQRIQSLGLNPLAHLTVAGQSRKEVAEVLHRFVESGVENLLALRGDPPRGERVFRPHPEGFRYAAELVALIRERYGDRVSVGGAAYPEGHPESESLEADLRHFKAKVEAGLDFAITQLFFNNAHYFGFLERARRAGIGIPILPGIMPVTSYRQLRRFTEVCGASIPGPLLAKLERHQDDPKAVLEIGVEHAVRQVAELLEAGVEGVHFYTLNKSPATRMVLERLGLRPASGQP
notes: Methylenetetrahydrofolate reductase (MetF homologue) of Thermus thermophilus HB8, clone TTHA0327, wildtype gene amplified by PCR into pET23; the original stop codon was mutated to Ala before the C-terminal hexa-His tag; One polypeptide in two cofactor states: as purified about one FAD per dimer (apo- plus holo-subunit), after FAD treatment one FAD per subunit; The stop codon is replaced by Ala, …
B1 was tested, and the “stoichiometry N” value was 2.
